“And” between values parts separate entries of the source, which are not always exact repeats. Equal values may be shown once.

The target of test [1] is T1, human TGFbR1 ECD-133-myc(His)6 (human).
T1 chain: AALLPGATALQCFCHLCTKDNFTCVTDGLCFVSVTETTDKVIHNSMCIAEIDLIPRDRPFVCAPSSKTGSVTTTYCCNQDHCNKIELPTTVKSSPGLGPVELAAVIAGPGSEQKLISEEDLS
The experiment in a line: BLI. Background: In BLI a coated tip is dipped into the sample, and binding shifts an interference pattern.

Test [2] addresses T2, murine TGFbR1 ECD-133-myc(His)6 (mouse, UniProt Q64729).
T2 chain: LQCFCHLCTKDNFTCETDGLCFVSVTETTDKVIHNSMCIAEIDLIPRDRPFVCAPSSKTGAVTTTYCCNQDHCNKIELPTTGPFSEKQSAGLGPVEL
As to the kind of experiment: BLI.

The target in test [3] is T1, human TGFbR1 ECD-133-myc(His)6. The experiment in a line: SPR. In general terms: SPR reads the build-up and loss of mass on a sensor chip optically.
Test [4] addresses T3, human TGFbR1 ECD-133-huFc (human).
T3 chain: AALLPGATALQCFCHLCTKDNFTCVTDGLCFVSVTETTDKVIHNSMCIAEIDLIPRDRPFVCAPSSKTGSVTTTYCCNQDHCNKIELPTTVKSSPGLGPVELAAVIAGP
The experiment in a line: BLI.

In test [5] the target is T1, human TGFbR1 ECD-133-myc(His)6. As to the kind of experiment: BLI.
The target in test [6] is T4, TGFbR1 ECD G132A (human).
T4 chain: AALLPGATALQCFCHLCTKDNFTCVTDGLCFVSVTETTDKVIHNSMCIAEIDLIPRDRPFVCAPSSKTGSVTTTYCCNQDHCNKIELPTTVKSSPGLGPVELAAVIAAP
The experiment in a line: ELISA. (An ELISA detects its analyte on a solid surface through an enzyme-linked reagent.)

Test [7] has as its target T1, human TGFbR1 ECD-133-myc(His)6. As to the kind of experiment: ELISA.
Test [8] deals with T5, TGFbR1 ECD V129G (human).
T5 chain: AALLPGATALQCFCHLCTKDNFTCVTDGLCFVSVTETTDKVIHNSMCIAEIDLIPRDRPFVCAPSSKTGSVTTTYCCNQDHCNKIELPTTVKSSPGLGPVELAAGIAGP
The experiment in a line: ELISA.

Test [9] concerns the target T6, TGFbR1 ECD P133A (human).
T6 chain: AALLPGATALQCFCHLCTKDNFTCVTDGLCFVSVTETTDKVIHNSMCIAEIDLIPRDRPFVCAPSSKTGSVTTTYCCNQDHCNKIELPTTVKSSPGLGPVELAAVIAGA
The experiment in a line: ELISA.

Test [10] deals with T7, human TGFbR1 ECD 33-125-myc(His)6 (human).
T7 chain: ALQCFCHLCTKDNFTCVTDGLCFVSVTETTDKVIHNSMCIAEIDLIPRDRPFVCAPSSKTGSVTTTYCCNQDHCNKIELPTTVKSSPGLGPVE
As to the kind of experiment: ELISA.

Test [11] addresses T8, TGFbR1 ECD I130G (human).
T8 chain: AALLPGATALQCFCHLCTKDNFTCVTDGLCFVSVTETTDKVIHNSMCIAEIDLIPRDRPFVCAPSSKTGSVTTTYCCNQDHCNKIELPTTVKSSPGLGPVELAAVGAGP
As to the kind of experiment: ELISA.

In test [12] the target is T9, TGFbR1 ECD L126A (human).
T9 chain: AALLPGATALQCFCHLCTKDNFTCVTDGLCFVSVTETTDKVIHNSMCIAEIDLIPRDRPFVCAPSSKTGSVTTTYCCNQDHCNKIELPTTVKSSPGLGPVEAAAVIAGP
As to the kind of experiment: ELISA.

The target in test [13] is T10, endogenous TGFbR1 on cells (human).
T10 chain: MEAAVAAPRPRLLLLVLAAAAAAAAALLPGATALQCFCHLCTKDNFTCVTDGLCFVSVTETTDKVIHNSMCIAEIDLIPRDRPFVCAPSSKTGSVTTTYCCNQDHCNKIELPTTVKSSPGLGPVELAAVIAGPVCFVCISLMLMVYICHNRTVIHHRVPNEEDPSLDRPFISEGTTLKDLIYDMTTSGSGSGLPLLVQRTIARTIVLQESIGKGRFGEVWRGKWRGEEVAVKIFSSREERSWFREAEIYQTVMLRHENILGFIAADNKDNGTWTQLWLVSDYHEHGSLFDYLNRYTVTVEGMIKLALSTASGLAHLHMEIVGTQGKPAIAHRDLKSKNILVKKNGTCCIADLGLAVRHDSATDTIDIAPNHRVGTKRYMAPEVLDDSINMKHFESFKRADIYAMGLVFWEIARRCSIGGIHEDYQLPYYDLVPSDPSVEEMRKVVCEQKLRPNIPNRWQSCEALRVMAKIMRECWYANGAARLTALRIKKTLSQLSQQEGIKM
As to the kind of experiment: FACS, RWPE cells.

Test [14] deals with T10, endogenous TGFbR1 on cells. The experiment in a line: FACS, PC-3U cells.
In test [15] the target is T1, human TGFbR1 ECD-133-myc(His)6. As to the kind of experiment: SPR, biotinylated mAb.

B1: mAb #19 murine chimeric IgG1 (antibody, V domains shown)
VH: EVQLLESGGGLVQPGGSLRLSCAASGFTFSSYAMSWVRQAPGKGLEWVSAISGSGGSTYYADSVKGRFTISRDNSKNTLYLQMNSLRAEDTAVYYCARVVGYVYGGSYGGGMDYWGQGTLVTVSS
VL: DIQMTQSPSSLSASVGDRVTITCRASQSISSYLNWYQQKPGKAPKLLIYAASSLQSGVPSRFSGSGSGTDFTLTISSLQPEDFATYYCQQGYGPLTFGQGTKLEIK
As usually defined, the Kd is the concentration at which binding is half-saturated. In general, IC50 refers to the concentration needed to halve the response being measured. A higher IC50 goes with a need for much substance. Take B1: the Kd was 3.74 nM in test [1]; 18 nM in test [2]; 5.6 nM and 6.5 nM in [3]; 13 nM in [4]; 3.7 nM in test [5]; 7.81 nM in [13]. Also, the Kd in test [14] is 10.7 nM; in test [15], 2.5 nM and 2.3 nM and 1.8 nM. Further, the binding result in [6], in test [8], in test [9], in [10], in test [11] and in test [12] was “no binding” each time. The same molecule gave a half-maximal inhibitory concentration (IC50) in test [7] of 0.104 nM.
